According to PMC7203678:

Target: T1, C-reactive protein human, recombinant (human), P02741
T1 chain: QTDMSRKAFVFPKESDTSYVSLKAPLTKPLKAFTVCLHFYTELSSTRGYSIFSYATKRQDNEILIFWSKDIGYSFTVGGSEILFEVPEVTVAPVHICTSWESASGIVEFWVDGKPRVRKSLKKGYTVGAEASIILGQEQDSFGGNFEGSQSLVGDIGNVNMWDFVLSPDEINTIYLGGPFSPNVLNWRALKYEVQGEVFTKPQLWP
Test: native MS
Conditions: remark: other sources report otherwise

B1: C-reactive protein human, recombinant, P02741 19-224 (natural protein)
chain: T1 chain
Q: Which stoichiometry N does the source give for B1 here?
A: 5
